# B1: Protein NRD1 (Saccharomyces cerevisiae), P53617 (parent)
# chain: MQQDDDFQNFVATLESFKDLKSGISGSRIKKLTTYALDHIDIESKIISLIIDYSRLCPDSHKLGSLYIIDSIGRAYLDETRSNSNSSSNKPGTCAHAINTLGEVIQELLSDAIAKSNQDHKEKIRMLLDIWDRSGLFQKSYLNAIRSKCFAMDISNNTANTASQQLSLDPKQRSKQILSNLKKSPPLNLNISLPTDLTSTDPAKQQAALFQVIAALQKHFKTLPSHTSVGTVAPPQAHTITEYGSRRERERERERYNSRRNRSRSPPAPFSQPSTGRKDRYPSVAQDQYSIGAPNTTFGTNNHHLYPDELNVSNNPHYRPKPVSYDSTLPPDHIKVYSRTLFIGGVPLNMKEWDLANVLKPFAEVQSVILNNSRKHAFVKVYSRHEAENVLQNFNKDGALPLRTRWGVGFGPRDCCDYQHGYSIIPMHRLTDADKKWSVSAQWGGTSGQPLVTGIVFEEPDIIVGEGVSSKAISQKMPTDSGRNGPRSGKPNKSGSISSISPVPYGNAPLASPPPQQYVQPMMQQPYGYAPNQPLPSQGPAAAAPPVPQQQFDPTAQLNSLMNMLNQQQQQQQQS
# partner: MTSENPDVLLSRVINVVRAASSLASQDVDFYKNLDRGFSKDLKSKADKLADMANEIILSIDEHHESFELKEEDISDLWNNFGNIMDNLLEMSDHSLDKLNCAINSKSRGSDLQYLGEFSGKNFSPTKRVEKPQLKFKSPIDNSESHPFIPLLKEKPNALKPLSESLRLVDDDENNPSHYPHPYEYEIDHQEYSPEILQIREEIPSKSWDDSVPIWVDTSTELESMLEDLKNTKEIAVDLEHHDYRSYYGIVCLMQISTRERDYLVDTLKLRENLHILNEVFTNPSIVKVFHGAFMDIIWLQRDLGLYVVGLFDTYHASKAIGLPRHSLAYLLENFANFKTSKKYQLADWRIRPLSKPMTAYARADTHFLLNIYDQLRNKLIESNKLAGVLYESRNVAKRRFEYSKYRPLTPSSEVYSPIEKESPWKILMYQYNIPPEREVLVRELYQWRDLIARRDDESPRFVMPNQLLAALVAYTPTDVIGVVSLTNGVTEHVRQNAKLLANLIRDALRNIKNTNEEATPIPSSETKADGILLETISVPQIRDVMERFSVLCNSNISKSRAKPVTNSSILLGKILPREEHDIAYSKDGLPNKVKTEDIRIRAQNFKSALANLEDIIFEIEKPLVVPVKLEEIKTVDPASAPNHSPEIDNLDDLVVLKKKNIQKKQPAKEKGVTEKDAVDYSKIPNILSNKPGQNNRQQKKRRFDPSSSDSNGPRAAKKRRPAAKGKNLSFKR
# Variants of: B1
# Conditions: with rrp6_yeast RRP6, Q12149
row,Variant,effect of a mutation on the interaction
1,V379R,with no effect

# — IntAct's records for PubMed 16427013
